Reference: patent publication US20190263882A1 (Scripps Research, published 2019)

T1: relaxin receptor (LGR7)
T1 sequence (Q9HBX9 whole entry, species assumed, looked up): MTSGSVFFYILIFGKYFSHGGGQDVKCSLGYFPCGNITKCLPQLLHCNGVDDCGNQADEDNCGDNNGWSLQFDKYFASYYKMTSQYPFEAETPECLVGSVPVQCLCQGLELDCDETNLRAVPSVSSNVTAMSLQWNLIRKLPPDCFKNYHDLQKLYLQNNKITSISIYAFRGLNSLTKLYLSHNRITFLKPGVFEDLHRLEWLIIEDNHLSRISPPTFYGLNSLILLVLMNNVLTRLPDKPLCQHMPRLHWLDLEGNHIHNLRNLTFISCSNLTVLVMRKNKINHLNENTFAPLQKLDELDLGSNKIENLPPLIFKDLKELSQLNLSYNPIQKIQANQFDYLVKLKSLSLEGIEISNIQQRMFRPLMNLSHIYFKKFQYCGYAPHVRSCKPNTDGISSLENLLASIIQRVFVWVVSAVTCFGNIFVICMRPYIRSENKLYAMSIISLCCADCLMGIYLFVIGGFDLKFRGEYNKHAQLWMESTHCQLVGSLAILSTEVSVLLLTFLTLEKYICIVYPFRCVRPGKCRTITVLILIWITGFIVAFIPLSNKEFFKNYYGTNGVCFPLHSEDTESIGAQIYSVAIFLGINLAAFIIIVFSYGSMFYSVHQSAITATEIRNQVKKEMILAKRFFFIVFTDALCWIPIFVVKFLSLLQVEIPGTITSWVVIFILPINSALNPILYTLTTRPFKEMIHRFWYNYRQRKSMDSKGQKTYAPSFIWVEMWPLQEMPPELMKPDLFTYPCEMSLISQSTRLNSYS


What was measured:
RSV F protein [1] = biological target: T2, RSV F protein (UniProt P03420 26-524); assay: ELISA, 100 ng/well RSV F protein coated, HRP anti-human IgG (Fc specific), QuantaBlu fluorescence (10 min)
T2 sequence (P03420 26-524): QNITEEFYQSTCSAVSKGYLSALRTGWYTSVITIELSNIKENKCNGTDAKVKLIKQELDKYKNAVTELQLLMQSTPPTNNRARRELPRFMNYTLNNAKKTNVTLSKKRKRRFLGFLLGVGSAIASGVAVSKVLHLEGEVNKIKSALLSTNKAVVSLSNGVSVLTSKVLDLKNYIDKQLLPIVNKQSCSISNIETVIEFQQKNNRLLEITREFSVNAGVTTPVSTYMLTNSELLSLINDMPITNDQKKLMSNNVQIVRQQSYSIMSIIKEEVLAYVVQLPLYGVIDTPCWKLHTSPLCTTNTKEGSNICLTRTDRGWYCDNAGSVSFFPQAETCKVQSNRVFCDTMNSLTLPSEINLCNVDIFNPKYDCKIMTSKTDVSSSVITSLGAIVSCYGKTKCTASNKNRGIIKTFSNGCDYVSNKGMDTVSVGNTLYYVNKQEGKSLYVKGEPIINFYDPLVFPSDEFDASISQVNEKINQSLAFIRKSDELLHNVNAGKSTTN
Description: Optimized palivizumab-relaxin fusion protein antibodies were tested for binding to RSV by ELISA assay. 100 ng/well RSV F protein was coated on 96-well plate in PBS 4° C. overnight. The plate was blocked with 2% BSA/PBS at room temperature for 1 hr, then washed twice with 200 μL PBS. The fusion antibodies were incubated at various concentrations (as indicated in FIG. 4) in 2% BSA/PBS at room temperature for 1 hr. Plates were washed with PBS (0.025% Tween-20 in PBS) four times and washed with PBS one time. […] Binding was quantified using Spectramax fluorescence plate reader with excitation at 325 nm and emission at 420 nm. Binding Kd values were determined (Table 14).

relaxin receptor (LGR7) = biological target: T1, relaxin receptor (LGR7); assay: cell-based or functional assay
RSV F protein [2] = biological target: T2, RSV F protein; assay: plate binding assay, RSV F protein coated, anti-human IgG (Fc specific) detection, fluorescence read at 25 min
RSV F protein [3] = biological target: T2, RSV F protein; assay: plate binding assay, RSV F protein coated, anti-human IgG (Fc specific) detection, fluorescence read at 50 min

Binder	Kd (RSV F protein [1]) [nM]	EC50, CRE-luciferase reporter assay (relaxin receptor (LGR7)) [pM]	Kd (RSV F protein [2]) [nM]	Kd (RSV F protein [3]) [nM]
RLX304 (antibody, human IgG1, kappa) heavy: DSWMEEVIKLCGRELVRAQIAICGMSTWSGGGGSGGGGQLYSALANKCCHVGCTKRSLARFCGGGGSGGGGSGGGGSGQVTLRESGPALVKPTQTLTLTCTFSGFSLSTSGMSVGWIRQPPGKALEWLADIWWDDKKDYNPSLKSRLTISKDTSKNQVVLKVTNMDPADTATYYCARSMITNAYFDVWGAGTTVTVSSASTKGPSVFPLAPSSKSTSGGTAALGCLVKDYFPEPVTVSWNSGALTSGVHTFPAVLQSSGLYSLSSVVTVPSSSLGTQTYICNVNHKPSNTKVDKKVEPKSCDKTHTCPPCPAPPVAGPSVFLFPPKPKDTLMISRTPEVTCVVVDVSHEDPEVKFNWYVDGVEVHNAKTKPREEQYNSTYRVVSVLTVLHQDWLNGKEYKCKVSNKGLPSSIEKTISKAKGQPREPQVYTLPPSRDELTKNQVSLTCLVKGFYPSDIAVEWESNGQPENNYKTTPPVLDSDGSFFLYSKLTVDKSRWQQGNVFSCSVMHEALHNHYTQKSLSLSPGK light: DIQMTQSPSTLSASVGDRVTITCKCQLSVGYMHWYQQKPGKAPKLLIYDTSKLASGVPSRFSGSGSGTAFTLTISSLQPDDFATYYCFQGSGYPFTFGGGTKLEIKRTVAAPSVFIFPPSDEQLKSGTASVVCLLNNFYPREAKVQWKVDNALQSGNSQESVTEQDSKDSTYSLSSTLTLSKADYEKHKVYACEVTHQGLSSPVTKSFNRGEC	38.2	78	–	–
Palivizumab null (antibody, human IgG1, kappa, also called null palivizumab antibody) heavy: QVTLRESGPALVKPTQTLTLTCTFSGFSLSTSGMSVGWIRQPPGKALEWLADIWWDDKKDYNPSLKSRLTISKDTSKNQVVLKVTNMDPADTATYYCARSMITNWYFDVWGAGTTVTVSSASTKGPSVFPLAPSSKSTSGGTAALGCLVKDYFPEPVTVSWNSGALTSGVHTFPAVLQSSGLYSLSSVVTVPSSSLGTQTYICNVNHKPSNTKVDKKVEPKSCDKTHTCPPCPAPPVAGPSVFLFPPKPKDTLMISRTPEVTCVVVDVSHEDPEVKFNWYVDGVEVHNAKTKPREEQYNSTYRVVSVLTVLHQDWLNGKEYKCKVSNKGLPSSIEKTISKAKGQPREPQVYTLPPSRDELTKNQVSLTCLVKGFYPSDIAVEWESNGQPENNYKTTPPVLDSDGSFFLYSKLTVDKSRWQQGNVFSCSVMHEALHNHYTQKSLSLSPGK light: DIQMTQSPSTLSASVGDRVTITCKCQLSVGYMHWYQQKPGKAPKLLIYDTSKLASGVPSRFSGSGSGTEFTLTISSLQPDDFATYYCFQGSGYPFTFGGGTKLEIKRTVAAPSVFIFPPSDEQLKSGTASVVCLLNNFYPREAKVQWKVDNALQSGNSQESVTEQDSKDSTYSLSSTLTLSKADYEKHKVYACEVTHQGLSSPVTKSFNRGEC	–	–	0.8	0.49
RLX301 (antibody, human IgG1, kappa) heavy: DSWMEEVIKLCGRELVRAQIAICGMSTWSGGGGSGGGGQLYSALANKCCHVGCTKRSLARFCGGGGSGGGGSGGGGSGQVTLRESGPALVKPTQTLTLTCTFSGFSLSTSGMSVGWIRQPPGKALEWLADIWWDDKKDYNPSLKSRLTISKDTSKNQVVLKVTNMDPADTATYYCARSMITFGGFDVWGAGTTVTVSSASTKGPSVFPLAPSSKSTSGGTAALGCLVKDYFPEPVTVSWNSGALTSGVHTFPAVLQSSGLYSLSSVVTVPSSSLGTQTYICNVNHKPSNTKVDKKVEPKSCDKTHTCPPCPAPPVAGPSVFLFPPKPKDTLMISRTPEVTCVVVDVSHEDPEVKFNWYVDGVEVHNAKTKPREEQYNSTYRVVSVLTVLHQDWLNGKEYKCKVSNKGLPSSIEKTISKAKGQPREPQVYTLPPSRDELTKNQVSLTCLVKGFYPSDIAVEWESNGQPENNYKTTPPVLDSDGSFFLYSKLTVDKSRWQQGNVFSCSVMHEALHNHYTQKSLSLSPGK light: DIQMTQSPSTLSASVGDRVTITCKCQLSVGYMHWYQQKPGKAPKLLIYDTSKLASGVPSRFSGSGSGTAFTLTISSLQPDDFATYYCFQGSGYPFTFGGGTKLEIKRTVAAPSVFIFPPSDEQLKSGTASVVCLLNNFYPREAKVQWKVDNALQSGNSQESVTEQDSKDSTYSLSSTLTLSKADYEKHKVYACEVTHQGLSSPVTKSFNRGEC	79.3	72	–	–
RLX303 (antibody) heavy: DSWMEEVIKLCGRELVRAQIAICGMSTWSGGGGSGGGGQLYSALANKCCHVGCTKRSLARFCGGGGSGGGGSGGGGSGQVTLRESGPALVKPTQTLTLTCTFSGFSLSTSGMSVGWIRQPPGKALEWLADIWWDDKKDYNPSLKSRLTISKDTSKNQVVLKVTNMDPADTATYYCARSMITFGGFDVWGAGTTVTVSSASTKGPSVFPLAPSSKSTSGGTAALGCLVKDYFPEPVTVSWNSGALTSGVHTFPAVLQSSGLYSLSSVVTVPSSSLGTQTYICNVNHKPSNTKVDKKVEPKSCDKTHTCPPCPAPPVAGPSVFLFPPKPKDTLMISRTPEVTCVVVDVSHEDPEVKFNWYVDGVEVHNAKTKPREEQYNSTYRVVSVLTVLHQDWLNGKEYKCKVSNKGLPSSIEKTISKAKGQPREPQVYTLPPSRDELTKNQVSLTCLVKGFYPSDIAVEWESNGQPENNYKTTPPVLDSDGSFFLYSKLTVDKSRWQQGNVFSCSVMHEALHNHYTQKSLSLSPGK light: DIQMTQSPSTLSASVGDRVTITCKCQLSVGYMHWYQQKPGKAPKLLIYDTSKLASGVPSRFSGSGSGTAFTLTISSLQPDDFATYYCFQGNGYPFTFGGGTKLEIKRTVAAPSVFIFPPSDEQLKSGTASVVCLLNNFYPREAKVQWKVDNALQSGNSQESVTEQDSKDSTYSLSSTLTLSKADYEKHKVYACEVTHQGLSSPVTKSFNRGEC	52.1	–	–	–
RLX306 (antibody) heavy: DSWMEEVIKLCGRELVRAQIAICGMSTWSGGGGSGGGGQLYSALANKCCHVGCTKRSLARFCGGGGSGGGGSGGGGSGQVTLRESGPALVKPTQTLTLTCTFSGFSLSTSGMSVGWIRQPPGKALEWLADIWWDDKKDYNPSLKSRLTISKDTSKNQVVLKVTNMDPADTATYYCARSMITNAYFDVWGAGTTVTVSSASTKGPSVFPLAPSSKSTSGGTAALGCLVKDYFPEPVTVSWNSGALTSGVHTFPAVLQSSGLYSLSSVVTVPSSSLGTQTYICNVNHKPSNTKVDKKVEPKSCDKTHTCPPCPAPPVAGPSVFLFPPKPKDTLMISRTPEVTCVVVDVSHEDPEVKFNWYVDGVEVHNAKTKPREEQYNSTYRVVSVLTVLHQDWLNGKEYKCKVSNKGLPSSIEKTISKAKGQPREPQVYTLPPSRDELTKNQVSLTCLVKGFYPSDIAVEWESNGQPENNYKTTPPVLDSDGSFFLYSKLTVDKSRWQQGNVFSCSVMHEALHNHYTQKSLSLSPGK light: DIQMTQSPSTLSASVGDRVTITCKCQLSVGYMHWYQQKPGKAPKLLIYDTSKLASGVPSRFSGSGSGTAFTLTISSLQPDDFATYYCFQGNGYPFTFGGGTKLEIKRTVAAPSVFIFPPSDEQLKSGTASVVCLLNNFYPREAKVQWKVDNALQSGNSQESVTEQDSKDSTYSLSSTLTLSKADYEKHKVYACEVTHQGLSSPVTKSFNRGEC	82.7	–	–	–
RLX300 (no mutations) (antibody, human IgG1, kappa, also called SC3.s) heavy: DSWMEEVIKLCGRELVRAQIAICGMSTWSGGGGSGGGGQLYSALANKCCHVGCTKRSLARFCGGGGSGGGGSGGGGSGQVTLRESGPALVKPTQTLTLTCTFSGFSLSTSGMSVGWIRQPPGKALEWLADIWWDDKKDYNPSLKSRLTISKDTSKNQVVLKVTNMDPADTATYYCARSMITNWYFDVWGAGTTVTVSSASTKGPSVFPLAPSSKSTSGGTAALGCLVKDYFPEPVTVSWNSGALTSGVHTFPAVLQSSGLYSLSSVVTVPSSSLGTQTYICNVNHKPSNTKVDKKVEPKSCDKTHTCPPCPAPPVAGPSVFLFPPKPKDTLMISRTPEVTCVVVDVSHEDPEVKFNWYVDGVEVHNAKTKPREEQYNSTYRVVSVLTVLHQDWLNGKEYKCKVSNKGLPSSIEKTISKAKGQPREPQVYTLPPSRDELTKNQVSLTCLVKGFYPSDIAVEWESNGQPENNYKTTPPVLDSDGSFFLYSKLTVDKSRWQQGNVFSCSVMHEALHNHYTQKSLSLSPGK light: DIQMTQSPSTLSASVGDRVTITCKCQLSVGYMHWYQQKPGKAPKLLIYDTSKLASGVPSRFSGSGSGTAFTLTISSLQPDDFATYYCFQGSGYPFTFGGGTKLEIKRTVAAPSVFIFPPSDEQLKSGTASVVCLLNNFYPREAKVQWKVDNALQSGNSQESVTEQDSKDSTYSLSSTLTLSKADYEKHKVYACEVTHQGLSSPVTKSFNRGEC	0.301	–	–	–
RLX305 (antibody) heavy: DSWMEEVIKLCGRELVRAQIAICGMSTWSGGGGSGGGGQLYSALANKCCHVGCTKRSLARFCGGGGSGGGGSGGGGSGQVTLRESGPALVKPTQTLTLTCTFSGFSLSTSGMSVGWIRQPPGKALEWLADIWWDDKKDYNPSLKSRLTISKDTSKNQVVLKVTNMDPADTATYYCARSMITNAYFDVWGAGTTVTVSSASTKGPSVFPLAPSSKSTSGGTAALGCLVKDYFPEPVTVSWNSGALTSGVHTFPAVLQSSGLYSLSSVVTVPSSSLGTQTYICNVNHKPSNTKVDKKVEPKSCDKTHTCPPCPAPPVAGPSVFLFPPKPKDTLMISRTPEVTCVVVDVSHEDPEVKFNWYVDGVEVHNAKTKPREEQYNSTYRVVSVLTVLHQDWLNGKEYKCKVSNKGLPSSIEKTISKAKGQPREPQVYTLPPSRDELTKNQVSLTCLVKGFYPSDIAVEWESNGQPENNYKTTPPVLDSDGSFFLYSKLTVDKSRWQQGNVFSCSVMHEALHNHYTQKSLSLSPGK light: DIQMTQSPSTLSASVGDRVTITCKCQLSVGYMHWYQQKPGKAPKLLIYDTSKLASGVPSRFSGSGSGTAFTLTISSLQPDDFATYYCFQYSGYPFTFGGGTKLEIKRTVAAPSVFIFPPSDEQLKSGTASVVCLLNNFYPREAKVQWKVDNALQSGNSQESVTEQDSKDSTYSLSSTLTLSKADYEKHKVYACEVTHQGLSSPVTKSFNRGEC	75.2	–	–	–
